Measured values as given in patent US20240343794A1 (UNITED KINGDOM RESEARCH AND INNOVATION, published 2024).

Target: T1, human IL-25R (IL-17BR) on human ILCs/ILC2s from primary CRC samples (human, UniProt Q9NRM6 18-502)
T1 construct: Endogenous receptor on primary patient cells; also called interleukin-17 receptor B
T1 sequence: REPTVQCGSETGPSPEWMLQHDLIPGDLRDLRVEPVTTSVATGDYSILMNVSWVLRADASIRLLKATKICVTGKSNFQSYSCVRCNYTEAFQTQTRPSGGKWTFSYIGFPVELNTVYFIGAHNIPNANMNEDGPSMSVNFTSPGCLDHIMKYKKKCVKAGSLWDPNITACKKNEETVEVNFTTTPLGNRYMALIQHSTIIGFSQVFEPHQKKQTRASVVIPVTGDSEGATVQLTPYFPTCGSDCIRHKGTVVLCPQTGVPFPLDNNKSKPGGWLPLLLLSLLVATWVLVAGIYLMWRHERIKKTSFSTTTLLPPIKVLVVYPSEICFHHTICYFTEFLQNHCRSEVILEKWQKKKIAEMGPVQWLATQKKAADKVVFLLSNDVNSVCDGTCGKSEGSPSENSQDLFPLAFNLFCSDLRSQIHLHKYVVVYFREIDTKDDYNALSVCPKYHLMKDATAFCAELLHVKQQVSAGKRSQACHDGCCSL
Experiment: Flow cytometry of a primary human CRC sample stained with biotinylated D9.2 plus streptavidin-BV421. Cells were pre-gated on Live CD45+, then Lin- CD4-, CD127+, and CRTH2+ for ILC2.
Method: Subsequently, samples were digested with 62.5 μg/mL Liberase TL (Roche) and 0.125 KU/mL DNase I (Sigma) in RPMI+2% FCS+10 mM HEPES at 37° C., shaking, for 45 minutes to collect lamina propria cells. After digestion, cells were passed through a 70 μm cell strainer and washed with PBS+2% FCS before antibody staining. Mesenteric lymph nodes were mechanically dissociated in RPMI, filtered through a 50 μm cell strainer, and washed with PBS+2% FCS before antibody staining. Fresh, surgically-resected human CRC and adjacent normal tissue were collected in sterile PBS and transported on ice before sample processing. Samples were mechanically dissociated into small pieces and digested with 100 μg/mL Liberase TM (Roche) and 0.2 KU/mL DNase I (Sigma) in RPMI, and incubated at 37° C. for 30 minutes. Subsequently, cells were filtered through a 70 μm cell strainer and washed with PBS+2% FCS before antibody staining for flow cytometry.
For surface staining, single cell suspensions were 333 blocked with anti-CD16/32 antibody (Fc block, clone 2.4G2) and Human TruStain FcX (Biolegend, 422302) for mouse and human samples in PBS+2% FCS respectively, and incubated with fluorochrome-conjugated or biotinylated antibodies on ice for 30 minutes in the dark. If necessary, samples were then incubated with fluorochrome-conjugated streptavidin on ice for a further 30 minutes.

B1: anti-IL25R monoclonal antibody (clone D9.2) (antibody, V domains shown)
VH: QVQLQQPGAELVRPGASVKLSCKTSGYTFISYWMNWVKQGPEQGLEWIGRIDPYDSEIQYNQKFKDKAILTVDKSSSAAYMQLISLTSEDSAVYYCARSGGFDWFAYWGQGTLVTVSA
VL: DIQMTQSPASLSVSVGETVTITCRASENINSNLAWYQQKKGKSPQLLVYDVTNLADGVPSRFSGSGSGTQYSLKINSLQSEDFGSYYCQHFWRPPYTFGGGTNLEIK
notes: Murine antibody; also called IL17BR (D9.2, AF647); IL17BR (D9.2, biotin)
Q: Does B1 bind?
A: binds
